Measurements published in patent publication US9107936B2, “Antagonists of GRASP55 for use as a medicament” (Institut National de la Sante et de la Recherche Medicale …, priority 2012, dated 2015).

Legend:
[1] = target: T1, ADAM10 (Mus musculus, UniProt O35598, DEL741-741); assay: yeast two hybrid interaction of Grasp55 constructs with ADAM10 C-terminal sequence; format: binding, murine; design: key: Symbols “+++” and “−” indicates the growth of yeast on selective media as shown in the FIGURE 13; Symbols “+++” and “−” indicates the growth of yeast on selective media as shown in the FIGURE 13
T1 construct: expressed in transfected cells; host or cells: AH109 yeast strain
T1 sequence (O35598 with tags, fused parts or gaps DEL741-741): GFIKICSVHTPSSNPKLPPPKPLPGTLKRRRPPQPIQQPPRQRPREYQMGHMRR
Text: (§1) The different GRASP55 constructs were cloned into pGBT9 GW vector (Ga14 DNA-binding domain fusion vector, Trp) as well in the pACT2 GW vector (Gal4 DNA-activation domain fusion vector, Leu) using the Gateway technology (Invitrogen). Plasmids were then co-transformed in AH109 yeast strain (/MATa, trp1-901, leu2-3, 112, ura3-52, his3-200, gal4/A, /gal80/A, /LYS2::GAL1//UAS//-GAL1//TATA//-HIS3, GAL2//UAS//-GAL2//TATA//-ADE2, URA3::MEL1//UAS//-MEL1//TATA//-lacZ, MEL1/) in accordance with the previously described transformation protocol (Chien et al. 1991. Proc Natl Acad Sci USA. 88:9578-82). Following co-transformation with the two vectors containing the different constructs (as well as the empty vector to test self activation), yeasts were plated onto Synthetic Complete (SC) medium minus Leucine (−L), minus Tryptophan (−W), minus Histidine (−H) and incubated at 30° C. for 4 to 5 days. All yeast media were prepared as previously described.
(§2) In examples 2, the inventors have previously shown that interaction between Grasp55 and C-terminal part of JAM-C requires the peptidic sequence between residues 1 to 160 of Grasp55 (PDZI+II) but cannot occur with residues 1 to 79 of Grasp55 (PDZI) by yeast two hybrid and ELISA assay (FIGS. 2 and 8). In the present example, the interaction sites between JAMs or metalloproteinases involved in JAM regulation and Grasp55 have been mapped using new constructs. To this end, yeast two-hybrid and GST fusion proteins encompassing residues 1 to 107, 108 to 208, and 1 to 208 corresponding respectively to the PDZI′, PDZII′ and PDZI′+II′ constructs have been generated. The former PDZII construct (residues 80 to 160) have also been used to test interaction with the C-terminal sequences of ADAM 10 (of sequence SEQ ID NO: 41) and ADAM 17 (of sequence SEQ ID NO: 42) known to regulate JAM-A and JAM-C release (Table 1). GST fusion proteins were produced and yeast two-hybrid assay was performed as previously described in example 1.

[2] = target: T2, ADAM17 (Mus musculus, UniProt Q9Z0F8, A775V/P752S); assay: yeast two hybrid interaction of Grasp55 constructs with ADAM17 C-terminal sequence; format: binding, murine; design: key: Symbols “+++” and “−” indicates the growth of yeast on selective media as shown in the FIGURE 13; Symbols “+++” and “−” indicates the growth of yeast on selective media as shown in the FIGURE 13
T2 construct: expressed in transfected cells; host or cells: AH109 yeast strain
Text: as §1, §2

[3] = target: T3, JAM-C ΔPDZbm (Mus musculus, UniProt Q9D8B7); assay: yeast two hybrid interaction of Grasp55 constructs with JAM-C ΔPDZbm; format: binding, murine; design: key: Symbols “+++” and “−” indicates the growth of yeast on selective media as shown in the FIGURE 13; Symbols “+++” and “−” indicates the growth of yeast on selective media as shown in the FIGURE 13
T3 construct: amino-acids 263 to 310 of murine JAM-C; expressed in transfected cells; host or cells: AH109 yeast strain
T3 sequence (Q9D8B7 263-307 limits assumed): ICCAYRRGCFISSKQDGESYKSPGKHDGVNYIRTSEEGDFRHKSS
Text: as §1, §2

[4] = target: T4, JAM-C (Mus musculus, UniProt Q9D8B7); assay: yeast two hybrid interaction of Grasp55 constructs with JAM-C; format: binding, murine; design: key: Symbols “+++” and “−” indicates the growth of yeast on selective media as shown in the FIGURE 13; Symbols “+++” and “−” indicates the growth of yeast on selective media as shown in the FIGURE 13
T4 construct: amino-acids 263 to 310 of murine JAM-C; expressed in transfected cells; host or cells: AH109 yeast strain
T4 sequence (Q9D8B7 263-310): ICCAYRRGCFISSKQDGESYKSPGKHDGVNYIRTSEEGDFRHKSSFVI
Text: as §1, §2

[5] = target: T5, JAM-A (Mus musculus, UniProt O88792, R268T); assay: yeast two hybrid interaction of Grasp55 constructs with JAM-A; format: binding, murine; design: key: Symbols “+++” and “−” indicates the growth of yeast on selective media as shown in the FIGURE 13; Symbols “+++” and “−” indicates the growth of yeast on selective media as shown in the FIGURE 13
T5 construct: amino-acids 260 to 299 of murine JAM-A; expressed in transfected cells; host or cells: AH109 yeast strain
T5 sequence (O88792 260-300 R268T): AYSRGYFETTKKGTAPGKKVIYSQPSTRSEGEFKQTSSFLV
Text: as §1, §2

[6] = target: T6, JAM-B (Mus musculus, UniProt Q9JI59); assay: yeast two hybrid interaction of Grasp55 constructs with JAM-B; format: binding, murine; design: key: Symbols “+++” and “−” indicates the growth of yeast on selective media as shown in the FIGURE 13; Symbols “+++” and “−” indicates the growth of yeast on selective media as shown in the FIGURE 13
T6 construct: amino-acids 258 to 298 of murine JAM-B; expressed in transfected cells; host or cells: AH109 yeast strain
T6 sequence (Q9JI59 258-298): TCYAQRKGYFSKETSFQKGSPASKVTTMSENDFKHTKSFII
Text: as §1, §2

[7] = target: T7, JAM-A ΔPDZbm (Mus musculus, UniProt O88792, R268T); assay: yeast two hybrid interaction of Grasp55 constructs with JAM-A ΔPDZbm; format: binding, murine; design: key: Symbols “+++” and “−” indicates the growth of yeast on selective media as shown in the FIGURE 13; Symbols “+++” and “−” indicates the growth of yeast on selective media as shown in the FIGURE 13
T7 construct: amino-acids 260 to 299 of murine JAM-A; expressed in transfected cells; host or cells: AH109 yeast strain
T7 sequence (O88792 260-297 R268T): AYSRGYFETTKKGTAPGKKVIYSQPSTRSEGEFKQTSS
Text: as §1, §2

[8] = target: T8, JAM-B ΔPDZbm (Mus musculus, UniProt Q9JI59); assay: yeast two hybrid interaction of Grasp55 constructs with JAM-B ΔPDZbm; format: binding, murine; design: key: Symbols “+++” and “−” indicates the growth of yeast on selective media as shown in the FIGURE 13; Symbols “+++” and “−” indicates the growth of yeast on selective media as shown in the FIGURE 13
T8 construct: amino-acids 258 to 298 of murine JAM-B; expressed in transfected cells; host or cells: AH109 yeast strain
T8 sequence (Q9JI59 258-295 limits assumed): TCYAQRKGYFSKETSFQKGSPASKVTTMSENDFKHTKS
Text: as §1, §2

[9] = tested on: B16F10 cells; assay: ELISA of soluble JAM-C in cell culture supernatant; format: cell-based, mouse; settings: B16F10 control 0.27±0.02; mean±SEM
Procedure: An ELISA was designed to determine the concentration of soluble JAM-C in cell culture supernatants. Ninety-six-well plates (Nalge Nunc International) were coated overnight at room temperature with rat anti-mouse JAM-C antibody H36 (home-made). Plates were washed and blocked with buffer containing PBS and 2% of bovine albumin for 2 hours. Cell culture supernatants from different cell conditions were incubated during 3 hours. Plates were washed, and polyclonal rabbit anti-JAM-C (501) was added for 1 hour at room temperature. After three washes, donkey anti-rabbit HRP antibody was put on. To reveal the final read out, the substrate of HRP, tetramethylbenzidine ([…]) is adjoined. The absorbance lecture (D.O at 450 nm) is carried out on a ELISA POLARstar reader.

[10] = tested on: B16F10 cells; assay: wound healing assay (cell migration); format: cell-based, mouse; settings: B16F10 stably transfected with shRNA; shctrl 249±5; Mean+/−SEM
Procedure: Transient transfections were performed on a 50% confluent monolayer of B16F10 cells with either 10 nM of siRNA or 5 μg of shRNA against luciferase used as a control or shRNA against GRASP55 in Lipofectamine RNAimax (Invitrogen). Transfection efficiency was monitored at 24 h by qRT-PCR and Western blots for the expression of GRASP55 transcript or protein. For selection of stable transfectants, cells were grown in DMEM containing 10 μg/ml of puromycine (Sigma Aldrich) starting 48 h after transfection.
For in vitro wound healing assays, 80% confluent monolayers of wild-type B16F10 cells or B16F10 cells transfected with various siRNA or shRNA were grown in both chambers of Ibidi culture inserts with defined cell free gaps. Cells were subjected to serum starvation for 24 h, before wounds were created by removing Ibidi culture inserts that define cell gaps of 400 μm. The wound healing was carried out for 8 h in complete DMEM medium and was recorded at various times after wounding. Analysis of wound closure was performed using Metamorph software and is expressed as mean speed per minute.

T2 sequence (Q9Z0F8 693-827 P752S/A775V): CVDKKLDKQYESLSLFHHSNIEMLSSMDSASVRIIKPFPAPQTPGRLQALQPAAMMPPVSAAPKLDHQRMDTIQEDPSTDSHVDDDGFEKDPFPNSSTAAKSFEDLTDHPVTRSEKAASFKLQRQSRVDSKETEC

Substance	interaction with ADAM10 (yeast growth on selective media) [1]	interaction with ADAM17 (yeast growth on selective media) [2]	interaction with JAM-C ΔPDZbm (yeast growth on selective media) [3]	interaction with JAM-C (yeast growth on selective media) [4]	interaction with JAM-A (yeast growth on selective media) [5]	interaction with JAM-B (yeast growth on selective media) [6]	interaction with JAM-A ΔPDZbm (yeast growth on selective media) [7]	interaction with JAM-B ΔPDZbm (yeast growth on selective media) [8]	quantity of soluble JAM-C in cell culture supernatant [9] [ng/mL]	mean velocity [10] [nm/min]
PDZI + II: Grasp55 construct, residues 1 to 160	−	−	−	+++	+++	+++	−	−		
PDZI: Grasp55 construct, residues 1 to 79	−	−	−	−	−	−	−	−		
PDZII: Grasp55 construct, residues 80 to 160	+++	+++	−	−	−	−	−	−		
shGRASP55: shRNA against mouse GRASP55 in pSUPER.retro, target SEQ ID NO: 11, strands SEQ ID Nos. 12 and 13 (chain 1 CGGUUCAAGAUUAAAUAAATT; chain 2 AATTTATTTAATCTTGAACCG)									0.21 ± 0.01	184 ± 6
